We go through one substance from publication PMC10893412, “Genetic and Biochemical Characterization of AXC-2 from Achromobacter ruhlandii” (Pathogens, 2024).

Common to all, as to test: purified protein
Settings in all cases: 25 mM sodium phosphate pH 7.5, 25 °C

In data set [1] the test system is CC1=C(C(=O)O)N2C(=O)[C@@H](NC(=O)[C@H](N)c3ccccc3)[C@H]2SC1.
Data set [2] has as its system CC1(C)S[C@@H]2[C@H](NC(=O)Cc3ccccc3)C(=O)N2[C@H]1C(=O)O. Format: biochemical, Achromobacter ruhlandii. An excerpt: (§1) UV/Vis spectrophotometric hydrolysis, steady state on AXC-2
Data set [3] deals with CC1(C)S[C@@H]2[C@H](NC(=O)[C@H](N)c3ccccc3)C(=O)N2[C@H]1C(=O)O. The data set is classed as biochemical, Achromobacter ruhlandii.
Excerpt: as §1

Data set [4] deals with CO/N=C(\C(=O)N[C@@H]1C(=O)N2C(C(=O)O)=C(CSc3nc(=O)c(=O)[nH]n3C)CS[C@H]12)c1csc(N)n1. Format: biochemical, Achromobacter ruhlandii.
Excerpt: as §1

Data set [5] relates to CO/N=C(\C(=O)N[C@@H]1C(=O)N2C(C(=O)[O-])=C(C[N+]3(C)CCCC3)CS[C@H]12)c1csc(N)n1. Format: biochemical, Achromobacter ruhlandii.
Excerpt: as §1

For data set [6], the system named is C[C@@H](O)[C@H]1C(=O)N2C(C(=O)O)=C(SCCN=CN)C[C@H]12. The data set is classed as biochemical, Achromobacter ruhlandii.
Excerpt: as §1

Data set [7] has as its system C[C@@H](O)[C@H]1C(=O)N2C(C(=O)O)=C(S[C@@H]3CN[C@H](C(=O)N(C)C)C3)[C@H](C)[C@H]12. The data set is classed as biochemical, Achromobacter ruhlandii.
Excerpt: as §1

Data set [8] concerns O=C(Cc1cccs1)N[C@@H]1C(=O)N2C(C(=O)O)=C(/C=C/c3ccc([N+](=O)[O-])cc3[N+](=O)[O-])CS[C@H]12. Format: biochemical, Achromobacter ruhlandii.
Excerpt: as §1

What is called Km is the substrate concentration at which the rate is half of its maximum. The term kcat denotes the number of substrate molecules converted per active site and unit of time at saturation. As usually defined, the kcat/Km is the second-order rate constant that governs catalysis at low substrate concentration.

On to AXC-2 (Achromobacter ruhlandii), for which the Km in data set [1] is 74 ± 14 µM; in data set [2], 1297 ± 409 µM; in data set [3], 344 ± 14 µM; in data set [4], 59 ± 6 µM; in data set [5] it was 872 ± 254 µM; in data set [6] it was 6.3 ± 0.8 µM. Also, the Km in data set [7] was found to be 8 ± 1 µM; in data set [8], 202 ± 24 µM. For the same substance, the kcat in data set [1] came out at 16 s⁻¹; in data set [2], 125 ± 28 s⁻¹; in data set [3], 62 ± 5 s⁻¹; in data set [4] it was 5.5 ± 0.3 s⁻¹; in data set [5], 0.29 ± 0.07 s⁻¹; in data set [6] it was 0.0364 ± 0.0009 s⁻¹. Further, the results for the kcat in data set [7] and in data set [8] were 0.051 ± 0.002 s⁻¹ and 40 ± 3 s⁻¹, respectively. Moreover, the kcat/Km in data set [1] was 220000 M⁻¹ s⁻¹; in data set [2], 100000 ± 50000 M⁻¹ s⁻¹; in data set [3] it was 180000 ± 20000 M⁻¹ s⁻¹; in data set [4], 90000 ± 10000 M⁻¹ s⁻¹; in data set [5], 300 ± 100 M⁻¹ s⁻¹; in data set [6] it was 5800 ± 900 M⁻¹ s⁻¹. Also, the catalytic efficiency (kcat/Km) is 7000 ± 1000 M⁻¹ s⁻¹ in data set [7] and 200000 ± 40000 M⁻¹ s⁻¹ in data set [8].
